For 72 sequences, protein stability index results are on record in the supplement of paper PMC10567573.

This series in a line: protein stability index of a GFP-peptide fusion (GPS, HEK-293T) (PSI 1-6); higher = more stable.
[1] abbreviates: treatment: DMSO, c terminus: a fixed tail appended.
Where [2] appears, read: treatment: MLN4924 1 uM, 8 h, c terminus: a fixed tail appended.

± gives the standard deviation.
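Further: 24-mer peptide tiles fused after GFP, lentivirally expressed, FACS-sorted into six equal bins by GFP/DsRed ratio, decoded by Illumina sequencing, PSI is the read-weighted mean bin number.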

In the case of SVPLAYFLLSQQTDLPECEQSSAR [TCF25], the protein stability index worked out at 3.07 ± 0.25 under setting [1] and 2.89 ± 0.5 under setting [2].
For SVSLQINCQSVAQMNLLQKYSLLK [DLC1], the protein stability index was 2.2 ± 0.12 under setting [1] and 2.13 ± 0.22 under setting [2].
For the sequence SWEGLAVLDSLLLTLLPQLQEAWQ [RSAD1], the protein stability index by setting is: under setting [1], 3.27 ± 0.35; under setting [2], 3.22 ± 0.52.
Turning to SWNSQSSLLDVQRVPSFESFEDDC [ETS2], the protein stability index was 4.84 ± 0.17 under setting [1] and 4.67 ± 0.13 under setting [2].
With SYKIEEISPSTLKNSLFPSPISSI [KCNK9], the protein stability index is, setting by setting: under setting [1], 2.6 ± 0.21; under setting [2], 2.7 ± 0.33.
Take SYRIHNGQKLVVPGLLGSMALSNH [FBXO3]: the protein stability index worked out at 2.35 ± 0.27 under setting [1] and 2.43 ± 0.31 under setting [2].
On to SYSQSSNLFRHQRRHNAEKLLNVV [ZNF24], for which the protein stability index is, setting by setting: under setting [1], 2.58 ± 0.27; under setting [2], 2.97 ± 0.41.
Turning to SYSREHEGRLRYPSRREPPPRRSR [CLK3], the protein stability index was 5.28 ± 0.2 under setting [1] and 5.01 ± 0.48 under setting [2].
Turning to TAERITQLSAPHCKKLSLELGGKN [ALDH8A1], the protein stability index worked out at 3.75 ± 0.21 under setting [1] and 3.98 ± 0.19 under setting [2].
For the sequence TCCYFKFIIEYYNIRPADSRWVRD [FBXO34], the protein stability index is 2.84 ± 1.2 under setting [1] and 2.29 ± 0.54 under setting [2].
For TCFVRDGKTYCKRDYVRLFGIKCA [ISL2], in that order: 2.46 ± 0.18 and 2.17 ± 0.19.
As to TDFFKNIMNFIDIVAIIPYFITLG [KCNA1], the protein stability index is 3.22 ± 0.62 under setting [1] and 3.6 ± 0.2 under setting [2].
Consider TDPGDVPAFLKWLSLASLLVYVAA [SLC2A12], for which the protein stability index is, setting by setting: under setting [1], 2.37 ± 0.39; under setting [2], 2.66 ± 1.
Regarding THLEAQNRIKGCHDHLTLSVSRPE [PDLIM4], the protein stability index runs as follows: under setting [1], 3.57 ± 0.18; under setting [2], 3.66 ± 0.23.
For TINPSKRITAAEALKHPWISHRST [CAMK2A], the protein stability index runs as follows: under setting [1], 3.06 ± 0.23; under setting [2], 3.21 ± 0.2.
For TKCRKRKLERIARLEDKVKTLKAE [JUNB], in that order: 4.28 ± 0.23 and 4.42 ± 0.29.
TKSHSFRAMCQNGKLVYPSCEEK [CFHR2]: the protein stability index runs as follows: (treatment: DMSO, c terminus: native) 3.813 ± 0.01; (treatment: MLN4924 1 uM, 8 h, c terminus: native) 4.09 ± 0.12.
As to TLCAVLERDTLSIRESRLFGAVVR [BTBD1], the protein stability index by setting is: under setting [1], 2.4 ± 0.38; under setting [2], 2.22 ± 0.56.
On to TLCQFPETLLGDPKRRMRYFDPLR [KCNA3], for which the protein stability index under setting [1] turned out to be 2.26 ± 0.14 and the protein stability index under setting [2] was 2.5 ± 0.34.
In the case of TPNASSPGNPTALANGTVQAPKQK [LPCAT4], the protein stability index runs as follows: under setting [1], 5.31 ± 0.13; under setting [2], 5.43 ± 0.15.
Take TPNSAGGPGAHILRRKSPASGQGP [ADAMTS4]: the protein stability index stood at 4.55 ± 0.15 under setting [1] and 4.93 ± 0.28 under setting [2].
For TPTPVAAALDACSGNDPFAPSEGS [SNAP91], in that order: 5.29 ± 0.32 and 5.47 ± 0.24.
For TQGQEKMMMMGPKEEEQSCEYETR [ZNF232], in that order: 5.42 ± 0.38 and 5.59 ± 0.16.
For TQKLSHSTKPSGSPLEEKHDQCKC [MATN2], in that order: 5.15 ± 0.38 and 4.94 ± 0.29.
In the case of TQLTQNAVSCPYLPSNLLKKFRSS [KCNA4], the protein stability index runs as follows: under setting [1], 3.32 ± 0.37; under setting [2], 3.39 ± 0.2.
On to TREQLYQAIFHAVDQYLALPDVSL [MCOLN1], for which the protein stability index under setting [1] is 3.37 ± 0.54 and the protein stability index under setting [2] is 2.67 ± 0.61.
For the sequence TRRSCIDESQISAEEAEDHGRIPD [FAM189A2], the protein stability index reads like this: under setting [1], 5.5 ± 0.33; under setting [2], 5.49 ± 0.15.
For TRSCSSASSRSQQSSKRSSRSVED [CLK3], in that order: 5.047 ± 0.044 and 5.02 ± 0.22.
In the case of TRWCHIVRDSDSLAESEFESAAFS [PHTF1], the protein stability index reads like this: under setting [1], 3.45 ± 0.054; under setting [2], 3.33 ± 0.29.
For TSENLKLVHIVCHKKTTHKLNCDP [DFFB], in that order: 2.81 ± 0.19 and 2.97 ± 0.21.
For TSIGMPSLMYRSPPGAEEPQAPPA [RETREG3], in that order: 5.12 ± 0.12 and 4.92 ± 0.07.
For the sequence TSQGQVRMRLFGQRCQKCSWSQYE [RTP4], the protein stability index is 2.4 ± 0.37 under setting [1] and 2.01 ± 0.39 under setting [2].
Turning to TSRRSGVGLAVVNGQLMAVGGFDG [KLHL20], the protein stability index runs as follows: under setting [1], 2.99 ± 0.23; under setting [2], 2.94 ± 0.41.
Turning to TSSNLGSQYQCENGVSGPSQDLLP [TBX5], the protein stability index came out at 4.78 ± 0.16 under setting [1] and 4.6 ± 0.15 under setting [2].
Turning to TSSTFGLQDGNLRAPHKESTLPRS [CHCHD6], the protein stability index worked out at 4.42 ± 0.34 under setting [1] and 4.61 ± 0.14 under setting [2].
Regarding TSTPPPASVINNMLAEIFCQTGGV [ZBED1], the protein stability index is, setting by setting: under setting [1], 2.84 ± 0.076; under setting [2], 2.73 ± 0.23.
In the case of TTARERPCVRPGVSGSPVTQNHAA [FBF1], the protein stability index reads like this: under setting [1], 4.33 ± 0.23; under setting [2], 4.51 ± 0.3.
On to TTEVNAWLVHRDPEGSVSGSQPNS [NFE2L1], for which the protein stability index came to 4.33 ± 0.17 under setting [1] and 4.64 ± 0.35 under setting [2].
Turning to TTLDEFPLTRLGQLKACTNFDDIL [KCNG1], the protein stability index was 2.99 ± 0.26 under setting [1] and 2.92 ± 0.22 under setting [2].
Take TTTHAPPGVHRRYSALREESAKDW [PPFIA4]: the protein stability index is, setting by setting: under setting [1], 4.23 ± 0.3; under setting [2], 4.47 ± 0.15.
TVDIQNPDITSSRYRGLPAPGPSP [WAS] yielded a protein stability index under setting [1] of 4.49 ± 0.24 and a protein stability index under setting [2] of 4.7 ± 0.18.
For TVNVQRTGQPLPQSIQQAMRYLRN [DLC1], the protein stability index by setting is: under setting [1], 3.17 ± 0.18; under setting [2], 3.33 ± 0.23.
Turning to TVVSVRGFEESEPLTGFLTTVPDG [TNXB], the protein stability index reads like this: under setting [1], 3.92 ± 0.25; under setting [2], 3.78 ± 0.41.
Take TWHHTKPLLPSDLRRTGCAALRIA [GAN]: the protein stability index was determined as 2.45 ± 0.33 under setting [1] and 2.48 ± 0.24 under setting [2].
In the case of TYWQCGQYLGVGPGAHGRFMPQGA [RSAD1], the protein stability index under setting [1] is 2.27 ± 0.26 and the protein stability index under setting [2] is 2.65 ± 0.49.
Regarding VAARTPAVEGLTEAEEEELRAELT [TPD52L2], the protein stability index by setting is: under setting [1], 5.56 ± 0.23; under setting [2], 5.26 ± 0.26.
Taken in the same sequence, the figures for VAAVLEAVAQTAHLPADSEVTLEA [RSAD1] were 3.8 ± 0.17 and 3.94 ± 0.37.
VADIDGQYAMTRAQRVRAAMFPET [CTNNB1] returned a protein stability index under setting [1] of 3.65 ± 0.25 and a protein stability index under setting [2] of 3.6 ± 0.24.
Taken in the same sequence, the figures for VADMMYFCQMLAVVETINAAIGVT [HACD3] were 3.06 ± 0.42 and 3.2 ± 0.36.
Taken in the same sequence, the figures for VAFGIEADDESLLRTSNGQPVKTA [DNAAF3] were 4.47 ± 0.23 and 4.52 ± 0.16.
Turning to VAIAQKFAALRASLVAPLLLELAG [MYORG], the protein stability index runs as follows: under setting [1], 2.9 ± 0.76; under setting [2], 2.68 ± 1.1.
Consider VAQLEDRRSTTDLRGTQFDYERGK [ZSWIM9], for which the protein stability index by setting is: under setting [1], 5.03 ± 0.18; under setting [2], 5.07 ± 0.24.
Regarding VARPVRFPREHQFFEDGDVQRHLY [ZNF511], the protein stability index reads like this: under setting [1], 3.31 ± 0.17; under setting [2], 3.55 ± 0.38.
As for VAVLKGEQEKEAQHKDQTAALPLA [MAP2], the protein stability index reads like this: under setting [1], 5.28 ± 0.17; under setting [2], 5.09 ± 0.27.
For VCLPRSEDDDCDDDDDDDAQILPS [DRICH1], in that order: 5.38 ± 0.22 and 5.14 ± 0.09.
In the case of VDDKFGTGTKKVTRILDGGNPFLD [PSD2], the protein stability index runs as follows: under setting [1], 4.18 ± 0.051; under setting [2], 4.23 ± 0.25.
For VDGRATQKLIVNLKPEKSYSFVLT [PTPRD], in that order: 2.4 ± 0.51 and 2.37 ± 0.66.
On to VDNIDMIDGDGDDMERFMEEMREL [BEX5], for which the protein stability index runs as follows: under setting [1], 5.27 ± 0.41; under setting [2], 5.26 ± 0.21.
With VDWDEEYPPQMGEEYSQIIYSTKL [BTBD10], the protein stability index by setting is: under setting [1], 3.49 ± 0.15; under setting [2], 3.55 ± 0.41.
For the sequence VEEVVYDLSIRGFNKETAAACVEK [TSN], the protein stability index amounted to 4.63 ± 0.22 under setting [1] and 4.51 ± 0.56 under setting [2].
For VEGFRVTLVDEGDLYNWEVAIFGP [CDC34], in that order: 3.11 ± 0.82 and 2.85 ± 0.95.
For the sequence VEKLLREEAEGARWTSYRFSRVCR [TRIM35], the protein stability index reads like this: under setting [1], 2.89 ± 0.28; under setting [2], 3.22 ± 0.2.
In the case of VGAAYASLRRRGASAAARLGCNRQ [TRIM14], the protein stability index is, setting by setting: under setting [1], 3.36 ± 0.17; under setting [2], 4.09 ± 0.39.
Consider VGTRQNEELPCTCPLCTSDRGSCV [RHOBTB3], for which the protein stability index was 4.77 ± 0.27 under setting [1] and 4.93 ± 0.12 under setting [2].
Turning to VGYGDMYPVTIGGKIVGSLCAIAG [KCNA1], the protein stability index reads like this: under setting [1], 2.09 ± 0.55; under setting [2], 2.45 ± 0.28.
For VIVPKEEGVISVSEDRTVRVWLKR [WDFY2], in that order: 2.78 ± 0.32 and 3.17 ± 0.2.
Taken in the same sequence, the figures for VKRKMDGREYPDAQGFAADVRLMF [BRD3] were 2.44 ± 0.043 and 2.58 ± 0.18.
With VLCLLAADEDDDRDVALQIHFTLI [GADD45A], the protein stability index by setting is: under setting [1], 3.49 ± 2.2; under setting [2], 2.15 ± 1.
With VLEENGEKNQVQLGKLEATIKSLS [SASS6], the protein stability index runs as follows: under setting [1], 3.98 ± 0.43; under setting [2], 3.79 ± 0.16.
For the sequence VLRVEQQPHLPLLSTLAGIRVMVH [SCNN1D], the protein stability index worked out at 2.31 ± 0.25 under setting [1] and 2.26 ± 0.082 under setting [2].
For VMSALWVSGLDSSYLREQMLNEPL [GAN], in that order: 2.83 ± 0.24 and 2.29 ± 0.54.
Consider VMVRWNKSLEWSPWNCILLTKDEA [IQUB], for which the protein stability index reads like this: under setting [1], 2.57 ± 1; under setting [2], 2.25 ± 0.35.
